In assay [1] the target is Rubrerythrin Rbr (CD0825) of Clostridioides difficile (Clostridioides difficile). The experiment in a line: SEC; Superdex S200 10/300 GL, 20 mM Tris-HCl pH 7.5, 18% glycerol, 150 mM NaCl; mass read against protein standards. Background: SEC sorts molecules by how far they enter the pores of the column.
Assay [2] addresses Superoxide reductase Sor (CD0827, desulfoferrodoxin) of Clostridioides difficile (Clostridioides difficile). In words: SEC; Superdex S200 10/300 GL, 20 mM Tris-HCl pH 7.5, 150 mM NaCl, no glycerol; mass read against protein standards.
In assay [3] the target is CD0828 of Clostridioides difficile (annotated as a glutamate synthase, with an N-terminal rubredoxin-like domain) (Clostridioides difficile). The experiment in a line: SEC; Superdex S200 10/300 GL, 20 mM Tris-HCl pH 7.5, 18% glycerol, 150 mM NaCl; mass read against a second set of standards (ovalbumin, conalbumin, aldolase, ferritin, thyroglobulin).

Stoichiometry N data for three substances are collected here from paper PMC11980386.

Values joined by “and” are separate entries in the source; they are usually repeats but may differ in a detail not shown here. Equal values may be shown once.

The stoichiometry N is a count of units in the complex or per binding partner.

On to “Rubrerythrin Rbr (CD0825) of Clostridioides difficile (enzyme)”, for which the stoichiometry N in assay [1] came to 4.

Turning to “Superoxide reductase Sor (CD0827, desulfoferrodoxin) of Clostridioides difficile (enzyme)”, the stoichiometry N in assay [2] was 2 and 4.

Take “CD0828 of Clostridioides difficile (annotated as a glutamate synthase, with an N-terminal rubredoxin-like domain) (natural protein)”: the stoichiometry N in assay [3] was 2.
